2 substances from patent US20020146797 can be followed below.

In the data set the test system is RR-Src peptide.

For the substance “GST-XD4 (glutathione S-transferase fusion of the XD4 fragment of v-Src, wild-type catalytic domain)”, the KM (mM) for protein substrate RR-Src, ATP saturated was found to be 2.6 mM.
As for GST-XD4(V323A, I338A), the KM (mM) for protein substrate RR-Src, ATP saturated amounted to 3.1 mM and the KM (mM) for protein substrate RR-Src, N^6-(cyclopentyl)ATP saturated came out at 2.1 mM.
